According to US20080021198:

Target: PP2A A-C hetero-dimer (bovine brain, unmethylated) (UniProt Q32PI5)
Sequence (Q32PI5 2-589, chain 1 of 2): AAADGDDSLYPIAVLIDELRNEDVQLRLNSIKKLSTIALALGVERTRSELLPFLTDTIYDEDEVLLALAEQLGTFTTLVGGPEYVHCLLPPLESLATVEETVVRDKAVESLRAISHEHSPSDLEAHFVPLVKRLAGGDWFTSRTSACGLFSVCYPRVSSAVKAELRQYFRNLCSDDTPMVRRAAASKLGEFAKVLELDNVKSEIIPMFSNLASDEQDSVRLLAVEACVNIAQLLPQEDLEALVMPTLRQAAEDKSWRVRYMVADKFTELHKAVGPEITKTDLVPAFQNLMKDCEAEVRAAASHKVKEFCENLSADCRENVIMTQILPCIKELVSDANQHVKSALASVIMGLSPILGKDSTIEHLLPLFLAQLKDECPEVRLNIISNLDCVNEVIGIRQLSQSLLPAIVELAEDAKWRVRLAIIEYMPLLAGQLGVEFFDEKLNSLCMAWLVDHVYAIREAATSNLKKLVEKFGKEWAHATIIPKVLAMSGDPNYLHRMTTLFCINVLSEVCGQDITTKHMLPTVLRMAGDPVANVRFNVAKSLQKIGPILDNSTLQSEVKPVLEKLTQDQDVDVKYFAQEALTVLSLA
Sequence (chain, as listed by the source, chain 2 of 2): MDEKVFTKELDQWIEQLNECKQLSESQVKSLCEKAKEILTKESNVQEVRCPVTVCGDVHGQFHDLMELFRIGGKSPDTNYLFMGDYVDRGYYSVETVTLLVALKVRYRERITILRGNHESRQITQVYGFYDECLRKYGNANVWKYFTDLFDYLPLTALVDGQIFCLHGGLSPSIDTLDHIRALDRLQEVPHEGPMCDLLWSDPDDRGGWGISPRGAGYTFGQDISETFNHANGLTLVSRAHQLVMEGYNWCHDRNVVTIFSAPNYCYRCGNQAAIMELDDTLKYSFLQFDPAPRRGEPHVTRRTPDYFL

PMTΔ19 (human PP2A methyl transferase with the N-terminal 19 residues truncated)
enzyme activity (in vitro enzymatic assay, FIG. 7): Truncation of the N-terminal 19 amino acids did not appear to have any effect on the enzyme activity
